According to patent US20190194299A1:

How the values were obtained:
[1] = target: S1(349-590)-hFc (MERS-CoV; human) (UniProt K9N5Q8); assay: BLI (Octet), wild type RBD-hFc
[2] = target: Human DPP4 on stable 293T cells (293T-hDPP4) (human) (UniProt P27487)

Row | Substance | Kd [1] [nM] | EC50 [2] [µg/mL]
1 | Recombinant soluble human DPP4 (from UniProt P27487 29-766) (receptor) | 21.4 | –
2 | S1(349-590)-hFc (from UniProt K9N5Q8 349-590) (Fc fusion) | – | 0.015
